Patent publication US20210301020A1 (Amgen, published 2021)
Where a chain is given by its changes, count along the chain named.

B1: anti-LILRB1 antibody 30A10 (antibody, V domains shown)
VH: QVQLVESGGGVVQPGRSLRLSCAASGFTFSSYAMHWVRQAPGKGLEWVAIIWFDGSQRYYADSVKGRFTISRDNSRDTLYLQMNSLRAEDTAVYYCARDELTGFDYWGQGTLVTVSS
VL: DIQMTQSPSSLSASVGDRVTISCRASQNIINFLNWYQQKPGKAPKVLIDAASSLRSGVPSRFSGSGSETDFSLTISSLQPEDFATYYCQQSFSTPLTFGGGTKVEIRR
notes: Fully human antibody from XENOMOUSE mice, tested as hybridoma supernatant
B2: anti-LILRB1 antibody 3C1 (antibody, human IgG4, lambda, V domains shown)
VH: EVQLVESGGGLVQPGGSLRLSCAASGFTFSDYDMHWVRQATGKGLEWVATIDTAGDTYYPDSVRGRFTISRENAKNSLSLQMNSLRAGDTAVYFCARDVPGTGFDHWGQGTLVTVSS
VL: SSELTQDPAVSVALGQTVRITCQGDSLRSYYESWYQQKPGQAPVLVIYGKNNRPSGIPDRFSGSISGNTASLTITGTQAEDEADYYCNSRDNSGDHWVFGGGTRLTVLG
notes: Fully human antibody from XENOMOUSE XMG4-K/XMG4-KL mice, tested as hybridoma supernatant
B3: anti-LILRB1 antibody 19D6 (antibody, V domains shown)
VH: EVQLVESGGGLVQPGESLRLSCAASGFTFSDYDMHWVRQATGKGLEWVSAIDTAGDTYYLGPVKGRFTISRENAKNSLFLHMNSLRVGDTAVYYCIRDSGSSFDYWGQGTLVTVSS
VL: B2 VL with S1T, S29N, I65S, T73I, N88M, N92S, D95N, R104K, L105V
notes: as for B1

Tests used:
[1] = target: human LILRB1 expressed on cells (Jurkat reporter cells; primary human cells; human CD8+ T cells) (human) (UniProt Q8NHL6); experiment: flow cytometry, control on LILRB1 expressed by primary human cells
[2] = target: human LILRB1 expressed on cells (Jurkat reporter cells; primary human cells; human CD8+ T cells) (human) (UniProt Q8NHL6); experiment: flow cytometry, hybridoma supernatant on LILRB1 expressed by primary human cells
[3] = target: T1, Recombinant human LILRB1 (R&D Systems) (human, UniProt Q8NHL6 24-458, limits assumed); experiment: BLI, ForteBio Octet HTX, antibody captured by anti-human Fc on SA sensors, soluble LILRB1 as analyte, 25 C, 1:1 model
T1 construct: Soluble analyte in the Octet assay
Experimental: Affinity was measured on ForteBio Octet HTX (Molecular Devices) using SA biosensors (cat 18-5010) using assay buffer comprised of 10 mM Tris, 0.1% TritonX, 150 mM NaCl, 1 mM CaCl₂), 1 mg/mL BSA, pH 7.4. Assay was conducted at 25° C. and 1:1 model was used to fit the curves. Biotinylated goat anti-human Fc at 0.75 ug/mL was captured on SA sensors and antibodies as unpurified but quantified hybridoma supernatant were loaded on the sensor at 2 ug/mL for 600 seconds. Recombinant human LILRB1 (R&D Systems) titrated 1:2 from 25 nM was allowed to bind for 5 minutes, then dissociation was measured for 20 minutes.

[4] = target: human LILRB1 expressed on cells (Jurkat reporter cells; primary human cells; human CD8+ T cells) (human) (UniProt Q8NHL6); experiment: cell-based or functional assay

T1 sequence (Q8NHL6 24-458 limits assumed): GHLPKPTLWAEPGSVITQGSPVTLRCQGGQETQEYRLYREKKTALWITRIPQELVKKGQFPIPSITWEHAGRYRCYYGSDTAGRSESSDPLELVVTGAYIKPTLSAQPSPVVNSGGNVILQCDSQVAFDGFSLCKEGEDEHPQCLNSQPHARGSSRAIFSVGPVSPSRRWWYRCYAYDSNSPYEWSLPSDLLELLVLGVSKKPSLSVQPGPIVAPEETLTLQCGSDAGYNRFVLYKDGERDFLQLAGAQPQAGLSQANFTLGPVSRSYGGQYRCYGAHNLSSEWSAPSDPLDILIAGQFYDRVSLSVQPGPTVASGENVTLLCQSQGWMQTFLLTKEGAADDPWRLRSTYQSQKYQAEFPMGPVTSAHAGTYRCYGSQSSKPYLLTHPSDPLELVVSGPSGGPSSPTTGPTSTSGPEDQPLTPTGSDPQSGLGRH

Molecule | FACS GeoMean test 2 [1] | FACS GeoMean, test 1 [1] | FACS GeoMean test 2 [2] | Kd [3] [nM] | koff [3] [s⁻¹] | kon [3] [M⁻¹ s⁻¹] | Potency (nM), n = 1 [4] [nM] | Potency (nM), n = 2 [4] [nM] | FACS GeoMean, test 1 [2]
Isotype control (Table 2) (antibody) | 359 | 73 | – | – | – | – | – | – | –
B1 | – | – | 2540 | 0.103 | 0.00012 | 1.17e+06 | 0.062 | 0.042 | –
B2 | – | – | – | 0.168 | 0.000247 | 1.47e+06 | 0.04 | 0.024 | 1750
B3 | – | – | 2540 | 0.176 | 0.000206 | 1.17e+06 | 0.084 | 0.095 | –
